Measured values as given in paper PMC5871880, “Structural insights into the RNA methyltransferase domain of METTL16” (Scientific Reports, 2018).

Molecular target: the molecule itself
Assay: SEC; analytical SEC on Superdex 200 10/300 GL; samples ~21 µM in 100 µl; 25 mM HEPES pH 7.5, 100 mM KCl, 50 mM NaCl, 1 mM TCEP, 1 mM MgCl2; molecular weights from a standard curve

B1: human methyltransferase-like protein 16 (METTL16), residues 1-562 (enzyme)
chain: SNAMALSKSMHARNRYKDKPPDFAYLASKYPDFKQHVQINLNGRVSLNFKDPEAVRALTCTLLREDFGLSIDIPLERLIPTVPLRLNYIHWVEDLIGHQDSDKSTLRRGIDIGTGASCIYPLLGATLNGWYFLATEVDDMCFNYAKKNVEQNNLSDLIKVVKVPQKTLLMDALKEESEIIYDFCMCNPPFFANQLEAKGVNSRNPRRPPPSSVNTGGITEIMAEGGELEFVKRIIHDSLQLKKRLRWYSCMLGKKCSLAPLKEELRIQGVPKVTYTEFCQGRTMRWALAWSFYDDVTVPSPPSKRRKLEKPRKPITFVVLASVMKELSLKASPLRSETAEGIVVVTTWIEKILTDLKVQHKRVPCGKEEVSLFLTAIENSWIHLRRKKRERVRQLREVPRAPEDVIQALEEKKPTPKESGNSQELARGPQERTPCGPALREGEAAAVEGPCPSQESLSQEENPEPTEDERSEEKGGVEVLESCQGSSNGAQDQEASEQFGSPVAERGKRLPGVAGQYLFKCLINVKKEVDDALVEMHWVEGQNRDLMNQLCTYIRNQIFRLVAVN
notes: Ser-Asn-Ala linker encoded in the pMCSG68 vector, between the TEV protease cleavage site and residue 1; METTL16, human, UniProt Q86W50, residues 1-562; also called full-length METTL16; source: E. coli BL21 Gold, purified (HisTrap HP, TEV cleavage, SEC); not shown: His6, N-terminal, cleaved
  stoichiometry N: 2
